The results in this text go back to patent publication US20220204643A1 (published 2022).

Like-named read-outs stand apart in the source and are kept apart here.

In experiment [1] the target is T1, glucuronidase, beta pseudogene (human).
T1 construct: HuProt array protein; labelled _frag; pseudogene product; also called BC025996.2_frag
T1 chain: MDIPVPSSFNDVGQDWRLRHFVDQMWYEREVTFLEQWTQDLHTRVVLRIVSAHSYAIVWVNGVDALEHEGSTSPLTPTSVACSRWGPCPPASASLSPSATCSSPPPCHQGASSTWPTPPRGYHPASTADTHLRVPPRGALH

In experiment [2] the target is T2, actinin alpha 1, transcript variant 2 (human, UniProt P12814 1-892).
T2 construct: HuProt array protein, full-length recombinant from yeast; also called ACTN1

In experiment [3] the target is T3, dual specificity phosphatase 12 (human, UniProt Q9UNI6 1-340).
T3 construct: HuProt array protein, full-length recombinant from yeast; also called DUSP12

For experiment [4], the target named is T4, microfibril associated protein 3, transcript variant 3 (human, UniProt P55082 19-362).
T4 construct: HuProt array protein, full-length recombinant from yeast; also called MFAP3

In experiment [5] the target is T5, 5-hydroxytryptamine receptor 1E (human, UniProt P28566 1-365).
T5 construct: HuProt array protein, full-length recombinant from yeast; also called HTR1E

The target in experiment [6] is T6, membrane palmitoylated protein 2, transcript variant 3 (human, UniProt Q14168 1-576).
T6 construct: HuProt array protein, full-length recombinant from yeast; also called MPP2
T6 sequence: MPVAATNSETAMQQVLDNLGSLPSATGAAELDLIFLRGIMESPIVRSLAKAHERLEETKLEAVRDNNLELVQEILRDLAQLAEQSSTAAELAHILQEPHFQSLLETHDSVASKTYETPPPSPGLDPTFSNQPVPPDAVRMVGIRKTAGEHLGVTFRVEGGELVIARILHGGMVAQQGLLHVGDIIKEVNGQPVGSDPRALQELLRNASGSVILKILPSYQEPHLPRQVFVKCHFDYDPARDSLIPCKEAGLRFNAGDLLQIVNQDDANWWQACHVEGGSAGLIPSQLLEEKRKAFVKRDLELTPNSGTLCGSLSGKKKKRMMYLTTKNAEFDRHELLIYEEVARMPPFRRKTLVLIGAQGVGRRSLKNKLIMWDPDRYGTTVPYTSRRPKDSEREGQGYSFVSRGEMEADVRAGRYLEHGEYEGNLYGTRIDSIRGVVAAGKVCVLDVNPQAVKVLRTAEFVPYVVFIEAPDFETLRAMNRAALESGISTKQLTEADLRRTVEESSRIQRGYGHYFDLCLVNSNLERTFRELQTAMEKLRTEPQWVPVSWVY

For experiment [7], the target named is T7, kelch like family member 40 (human, UniProt Q2TBA0 1-621).
T7 construct: HuProt array protein, full-length recombinant from yeast; also called KLHL40
T7 sequence: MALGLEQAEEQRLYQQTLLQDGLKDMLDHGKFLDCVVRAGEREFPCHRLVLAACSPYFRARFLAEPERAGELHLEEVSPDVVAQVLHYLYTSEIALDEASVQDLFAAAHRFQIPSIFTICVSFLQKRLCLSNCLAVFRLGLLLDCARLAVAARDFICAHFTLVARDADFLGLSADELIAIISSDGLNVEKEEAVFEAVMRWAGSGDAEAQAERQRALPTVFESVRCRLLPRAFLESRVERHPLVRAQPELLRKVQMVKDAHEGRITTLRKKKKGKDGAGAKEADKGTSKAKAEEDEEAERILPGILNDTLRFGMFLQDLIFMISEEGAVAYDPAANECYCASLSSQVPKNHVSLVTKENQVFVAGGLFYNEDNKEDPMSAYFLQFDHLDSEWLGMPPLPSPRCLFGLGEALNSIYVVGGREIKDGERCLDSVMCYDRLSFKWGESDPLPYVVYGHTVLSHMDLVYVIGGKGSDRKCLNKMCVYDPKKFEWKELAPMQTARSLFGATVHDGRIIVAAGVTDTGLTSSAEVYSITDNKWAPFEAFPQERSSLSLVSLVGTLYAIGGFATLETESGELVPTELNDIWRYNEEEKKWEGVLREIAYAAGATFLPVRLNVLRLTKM

In experiment [8] the target is T8, butyrophilin subfamily 1 member A1 (human, UniProt Q13410 27-526).
T8 construct: on protein array; also called BTN1A1
T8 sequence: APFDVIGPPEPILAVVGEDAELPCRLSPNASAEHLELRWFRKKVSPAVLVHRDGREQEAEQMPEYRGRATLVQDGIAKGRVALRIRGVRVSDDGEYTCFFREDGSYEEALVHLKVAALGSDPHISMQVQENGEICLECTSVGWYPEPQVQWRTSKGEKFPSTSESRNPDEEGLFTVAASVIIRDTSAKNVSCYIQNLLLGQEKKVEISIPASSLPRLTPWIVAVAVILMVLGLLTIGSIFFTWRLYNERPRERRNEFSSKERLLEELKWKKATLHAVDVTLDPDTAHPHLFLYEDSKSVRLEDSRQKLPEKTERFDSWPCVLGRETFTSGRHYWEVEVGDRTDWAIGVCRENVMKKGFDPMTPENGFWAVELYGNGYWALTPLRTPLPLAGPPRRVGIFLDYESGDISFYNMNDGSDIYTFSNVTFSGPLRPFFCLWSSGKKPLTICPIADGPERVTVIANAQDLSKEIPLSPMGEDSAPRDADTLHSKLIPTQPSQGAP
Put plainly: protein array.

The target of experiment [9] is T9, butyrophilin subfamily 1 member A1 (human, UniProt Q13410 27-526).
T9 construct: HuProt array protein, full-length recombinant from yeast; also called BTN1A1
T9 sequence: T8 sequence

Experiment [10] concerns the target T10, cancer/testis antigen 1A (human, UniProt P78358 1-180).
T10 construct: HuProt array protein, full-length recombinant from yeast; also called CTAG1A

Experiment [11] has as its target T11, zinc finger with KRAB and SCAN domains 4, transcript variant X1 (human, UniProt Q969J2 1-545).
T11 construct: HuProt array protein, full-length recombinant from yeast; also called ZKSCAN4
T11 sequence: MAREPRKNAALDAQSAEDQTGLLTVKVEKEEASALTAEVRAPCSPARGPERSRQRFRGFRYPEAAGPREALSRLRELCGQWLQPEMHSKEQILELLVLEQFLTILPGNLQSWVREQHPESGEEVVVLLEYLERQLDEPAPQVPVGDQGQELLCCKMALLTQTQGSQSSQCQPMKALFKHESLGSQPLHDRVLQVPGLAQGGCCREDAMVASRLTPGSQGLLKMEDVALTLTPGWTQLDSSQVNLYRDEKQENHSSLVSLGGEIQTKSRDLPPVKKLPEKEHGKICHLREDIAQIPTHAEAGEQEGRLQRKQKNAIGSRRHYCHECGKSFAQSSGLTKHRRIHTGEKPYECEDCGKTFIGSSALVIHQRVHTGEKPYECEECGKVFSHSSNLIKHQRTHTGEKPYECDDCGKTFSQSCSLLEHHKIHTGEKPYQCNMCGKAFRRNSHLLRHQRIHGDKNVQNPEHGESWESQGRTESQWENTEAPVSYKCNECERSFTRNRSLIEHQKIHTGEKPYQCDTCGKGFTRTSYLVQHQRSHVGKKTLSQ

T4 sequence (P55082 19-362 limits assumed, change not shown): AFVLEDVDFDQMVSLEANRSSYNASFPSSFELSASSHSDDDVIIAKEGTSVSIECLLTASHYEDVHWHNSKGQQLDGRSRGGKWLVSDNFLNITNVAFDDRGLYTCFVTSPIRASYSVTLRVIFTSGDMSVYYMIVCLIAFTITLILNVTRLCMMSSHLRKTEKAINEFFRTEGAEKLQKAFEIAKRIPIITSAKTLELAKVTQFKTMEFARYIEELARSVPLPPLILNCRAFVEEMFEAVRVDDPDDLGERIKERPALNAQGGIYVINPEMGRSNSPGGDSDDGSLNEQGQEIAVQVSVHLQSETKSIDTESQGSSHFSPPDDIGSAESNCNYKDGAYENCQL
T5 sequence (P28566 whole entry): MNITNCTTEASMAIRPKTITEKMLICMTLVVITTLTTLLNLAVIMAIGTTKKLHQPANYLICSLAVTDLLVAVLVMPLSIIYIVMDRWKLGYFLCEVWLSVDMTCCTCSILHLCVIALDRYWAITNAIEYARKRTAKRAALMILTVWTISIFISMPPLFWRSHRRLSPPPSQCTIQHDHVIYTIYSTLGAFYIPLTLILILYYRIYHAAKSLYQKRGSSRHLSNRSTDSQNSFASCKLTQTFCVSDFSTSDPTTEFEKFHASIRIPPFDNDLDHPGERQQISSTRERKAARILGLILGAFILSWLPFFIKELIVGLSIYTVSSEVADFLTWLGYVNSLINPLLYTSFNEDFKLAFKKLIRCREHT
T10 sequence (P78358 whole entry): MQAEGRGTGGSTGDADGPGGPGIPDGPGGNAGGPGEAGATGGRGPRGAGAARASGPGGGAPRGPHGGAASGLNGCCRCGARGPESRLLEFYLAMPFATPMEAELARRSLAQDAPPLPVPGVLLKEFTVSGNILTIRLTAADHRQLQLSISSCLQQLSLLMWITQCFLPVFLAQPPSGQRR
T3 sequence (Q9UNI6 whole entry): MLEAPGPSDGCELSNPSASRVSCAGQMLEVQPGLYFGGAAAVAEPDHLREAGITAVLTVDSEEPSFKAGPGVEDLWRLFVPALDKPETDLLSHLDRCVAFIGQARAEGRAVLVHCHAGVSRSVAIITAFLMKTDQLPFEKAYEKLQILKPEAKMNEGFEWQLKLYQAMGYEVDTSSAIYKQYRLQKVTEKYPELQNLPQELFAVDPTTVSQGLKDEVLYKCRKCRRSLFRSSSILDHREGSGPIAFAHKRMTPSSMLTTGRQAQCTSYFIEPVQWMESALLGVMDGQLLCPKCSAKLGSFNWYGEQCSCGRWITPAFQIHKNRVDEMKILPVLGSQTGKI
T2 sequence (P12814 whole entry, change not shown): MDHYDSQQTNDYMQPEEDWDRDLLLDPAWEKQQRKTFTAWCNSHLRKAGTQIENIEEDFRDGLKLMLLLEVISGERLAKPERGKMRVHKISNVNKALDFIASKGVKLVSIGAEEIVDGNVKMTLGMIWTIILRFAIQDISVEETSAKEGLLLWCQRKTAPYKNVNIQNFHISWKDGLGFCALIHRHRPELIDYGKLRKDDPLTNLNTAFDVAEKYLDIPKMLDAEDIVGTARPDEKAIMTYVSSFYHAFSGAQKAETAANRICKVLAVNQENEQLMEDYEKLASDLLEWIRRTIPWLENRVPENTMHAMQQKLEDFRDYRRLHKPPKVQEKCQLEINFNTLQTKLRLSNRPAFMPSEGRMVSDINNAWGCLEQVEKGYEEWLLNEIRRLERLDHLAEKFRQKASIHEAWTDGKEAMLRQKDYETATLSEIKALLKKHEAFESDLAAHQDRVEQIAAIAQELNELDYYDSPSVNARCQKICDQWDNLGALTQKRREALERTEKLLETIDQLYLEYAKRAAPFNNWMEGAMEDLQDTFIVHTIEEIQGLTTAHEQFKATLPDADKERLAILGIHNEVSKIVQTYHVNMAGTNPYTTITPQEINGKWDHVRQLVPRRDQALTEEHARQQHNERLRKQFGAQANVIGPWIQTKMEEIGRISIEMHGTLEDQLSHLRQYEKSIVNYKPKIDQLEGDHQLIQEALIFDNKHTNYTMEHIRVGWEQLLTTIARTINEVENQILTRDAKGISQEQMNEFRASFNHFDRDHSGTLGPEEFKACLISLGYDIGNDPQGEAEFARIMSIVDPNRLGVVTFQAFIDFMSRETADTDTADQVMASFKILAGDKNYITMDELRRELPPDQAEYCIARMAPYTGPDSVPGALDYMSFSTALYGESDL

B1: TBRE1006 (antibody, V domains shown)
VH: QVQLVQSGAEVKKPGASVKVSCKASGYIFTSYAIHWVRQAPGQRLEWMGWINAGNGNTKYSQKFQGRVTITRDTSANTAYMELSSLRSEDTAIYYCARDIAVAITNYFGSWGQGTLVTVSS
VL: EIVLTQSPATLSLSPGERATLSCRASQSVGSYLAWYQQKPGQAPRLLIYDASNRATGIPARFSGSGSGTDFTLTISSLEPEDFAVYYCQQGSNWLALTFGGGTKVEIKR
notes: detected with anti-human IgG Fc
In the case of B1, the binding result in [1] is given as “binds”.

B2: TBRE1007 (antibody, V domains shown)
VH: QVQLQESGPGLVRPSETLSLTCDVSGYLISSGYYWGWVRQPPGKGLEWIGSVYHSGNAYYNPSLKGRVTMSVDTSKNQFSLKLTSVAAEDTAVYYCAREHRSGYQRYWGQGTLVTVSS
VL: IQMTQSPSSLSASVGDRVTITCRASQAIANSLAWYQQRPGKAPKLLIYAASSLESGVPSRFSGSGSGTDYTLTISSLQPEDFATYYCQQYYINPRTFGQGTKVEIKR
notes: as for B1
As to B2, the binding result in experiment [2] and in [3] was “binds” throughout.

B3: TBRE1002 (antibody, V domains shown)
VH: QVQLVESGGGVVQPGGSLRLSCGASGFAFSSNGMHWVRQAPGKGLEWVAFIHYDGRNKHYTDSVKGRFAISVDDSKTTLYLQMSSLKTEDTAVYYCVKDSRVTGQSSGYIFDSWGQGTLVTVSS
VL: ETVMTQSPATLSVSPGDRATLSCRASQNVNFNLAWYQQKPGQAPRLLIYDASTRATGIPARFSGSASGTEFTLTINSLQSEDFAVYYCQQYNNWWTFGQGTKLEIKR
notes: as for B1
Take B3: the binding result in [4] is given as “binds”.

B4: TBLA1013 (antibody, V domains shown)
VH: EVQLLESGGGLVQPGGSLTLSCVGSRFTFSSYAMNWVRQSPGRGLEWVASISATTGSTYYTDSVEGRFTISRDNSRDTLYLQMNSLRADDTALYYCVRSFVGAVPAYPNFDFWGPGTLVTVSS
VL: PSGLTQPPSASGTPGQRVTMSCSGSSSNIGRNYVYWYQQLPGAAPKLLIYRDNQRPSGVPDRFSGSKSGTSASLAISGLRSEDEADYYCAAWDDNVSGPGFGAGTRLTVLG
notes: as for B1
On to B4, for which the binding result in [5] is listed as “binds”.

B5: TBRE1012 (antibody, V domains shown)
VH: QVQLQESGPGLVKPTQTLSLTCTVSGGSISSGSYYWNWIRQPAGKGLEWIGNIYTSGNTDYNPSLKSRVTISLDTSKNQVSLNLTSVTAADTAVYYCATTPSSSWYWYFDPWGQGTLVTVSS
VL: DLQMTQSPSSLSASIGDRVTITCRASQSISTYFNWYQQKPGKAPKLLIYAASSLQSGVPSRFSGSGSGTDFTLTITSLQPEDFATYYCQQTYSNPWTFGQGTKVDFKR
notes: as for B1
With B5, the binding result in experiment [6] and in experiment [7] was “binds” throughout.

B6: TBRE1013 (antibody, V domains shown)
VH: EVQLVESGGGLVKPGGSLRLSCAGSGFSFSSYSMNWVRQAPGKGLEWVSSISSKSSSKNYIDSVKNRFIISRDNAKNSLYLQMNSLRAEDTAVYYCARDLELIIAAGAPLDHWGQGTLVTVSS
VL: DIQMTQSPSSLSASVGDRVTITCRASQSIKNYVNWYQQKPGEAPNLLIFAASNLQSGVPSRFTGSGSGTDFSLTISSLQPEDFAAYYCQQTYSHPRTFGQGTRVEIKR
notes: VH/VL only
On to B6, for which the binding result in experiment [8] is listed as “binds”.

B7: TBRE1013 (antibody, V domains shown)
VH: B6 VH
VL: B6 VL
notes: as for B1
In the case of B7, the binding result in [9] is “binds”.

B8: TBLA1012 (antibody, V domains shown)
VH: LLQLVESGGGVVQPGRSLRLSCAASGFTFTRHGFHWVRQAPGKGLEWVAVISSDGRKIHYTDSVKGRFVISRDDSDNTVYLHMNSLRLGDTALYYCARDSGGTPGPYWGQGTLVTVSS
VL: DVVMTQSPLSLPVTLGQPASISCRSSQSLVHSDGNTYLNWFQQRPGQSPRRLIYMVSNRDSGVPDRFSGSGSGTDFTLKISRVEAEDVGVYYCLQGTHWPPTIGQGTKVEIE
notes: as for B1
Regarding B8, the binding result in [10] is listed as “binds”.

B9: TBRE1009 (antibody, V domains shown)
VH: EVQLVESGGGLVKPGGSLRLSCVGSGFTFSNYSMNWVRQAPGRGLEWVSSISWGSSYINYADSVKGRFTISRDNAKNSLYLQMTSLTAEDTAVYYCACRRIYQGFDPWGQGTLVT
VL: DIQMTQSPSSLSASVGDRVTISCRASHNINTYLNWYQHKPGKAPKIVIYGASSLQSGVPSRFSGSGSGTDFSLTISSLQREDFATYFCQQSFNTVLTFGGGTRVDI
notes: as for B1
Consider B9, for which the binding result in [11] was “binds”.
